In patent US20250171562A1 (ALK ABELL, published 2025):
Positions count from the first letter of the chain named. Names may count otherwise. One block for each binder: values may come before it.

Target: T1, recombinant human IgE (human, UniProt P01854-1 1-428)
T1 construct: made in-house (ALK); preloaded on immobilised FcεRIα in the displacement ELISA
Assay: IgE-FcεRIα displacement ELISA
Method: The displacement effect was tested using IgE-FcεRIα displacement ELISA assay. Maxisorp® microtiter plates (Thermo Scientific Nunc, Roskilde, Denmark) were coated with 100 μl streptavidin, 5 μg/ml (Thermo Scientific, Waltham, MA) for 18 h at 4° C. followed by wash with 300 μl washing buffer (PBS containing 0.05% Tween 20) using an AquaMax® 2000 plate washer (Molecular Devices, San Jose, CA). Remaining binding sites were blocked with 250 μl blocking buffer (PBS containing 2% BSA) for 2 h and washed with 300 μl washing buffer. Subsequently, the bound streptavidin was loaded with 100 μl (0.1 μg/ml) recombinant human FcεRIα (site specific biotinylated via avi-tag, made in-house, ALK, Hørsholm, Denmark) for 1 h and plates washed twice with 300 μl washing buffer. The bound receptor was then loaded with 100 μl recombinant human IgE (made in-house, ALK, Hørsholm, Denmark), 13 ng/ml (pre-titrated to reach an OD₄₅₀ signal in the range of 1.5-2.5 in the absence of displacement components) for 1h followed by three washes of 300 μl washing buffer.
displacement step: 100 μl sdAbs diluted in concentration series (pM-μM range) or blocking buffer only as a non-displacement negative control, were added to the ELISA wells and incubated for 1 h. Any IgE, displaced from the receptor by a sdAb was washed away by three washes of 300 μl washing buffer.
The ability of the various sdAbs to displace IgE from the receptor (FcεRIα) was evaluated by use of the ELISA based IgE-FcεRIα displacement assay. The percent displacement effect was calculated as the relative reduction in signal compared to the control with no sdAb added. The EC₅₀ values and the maximal effects were determined (table 15).

T1 sequence (P01854 other isoform, or with tags, fused parts or gaps): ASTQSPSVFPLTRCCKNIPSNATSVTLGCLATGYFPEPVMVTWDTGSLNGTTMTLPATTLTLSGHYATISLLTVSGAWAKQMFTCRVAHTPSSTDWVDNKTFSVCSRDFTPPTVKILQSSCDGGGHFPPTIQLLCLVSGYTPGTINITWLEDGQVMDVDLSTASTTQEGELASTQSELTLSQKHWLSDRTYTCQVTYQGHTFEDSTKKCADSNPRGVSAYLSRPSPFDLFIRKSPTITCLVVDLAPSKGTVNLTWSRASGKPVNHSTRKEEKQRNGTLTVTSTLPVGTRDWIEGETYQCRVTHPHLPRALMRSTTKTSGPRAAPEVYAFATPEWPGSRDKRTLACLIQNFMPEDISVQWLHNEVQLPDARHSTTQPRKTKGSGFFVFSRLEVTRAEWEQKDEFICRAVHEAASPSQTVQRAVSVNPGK

- EC50: 310 nM
B3: NIgG4A1A1(G4S)3 (Fc fusion)
chain 1: EVQLLESGGGLVQPGGSLRLSCAASGFTFGNYDMAWVRQAPGKRPEWVSSIDTGGDITHYADSVKGRFTISRDNAKNTLYLQMNSLRPEDTAVYWCATDEEYALGPNEFDYYGQGTLVTVSSGGGGSGGGGSGGGGSGPPCPPCPAPEFLGGPSVFLFPPKPKDTLMISRTPEVTCVVVDVSQEDPEVQFNWYVDGVEVHNAKTKPREEQFNSTYRVVSVLTVLHQDWLNGKEYKCKVSNKGLPSSIEKTISKAKGQPREPQVYTLPPCQEEMTKNQVSLWCLVKGFYPSDIAVEWESNGQPENNYKTTPPVLDSDGSFFLYSRLTVDKSRWQEGNVFSCSVMHEALHNHYTQKSLSLSLGK
chain 2: B3 chain 1 with Y264C, C269S, W281S, L283A, Y322V

- EC50: 490 nM
B5: NIgG4A1A1(RS) (Fc fusion)
chain 1: EVQLLESGGGLVQPGGSLRLSCAASGFTFGNYDMAWVRQAPGKRPEWVSSIDTGGDITHYADSVKGRFTISRDNAKNTLYLQMNSLRPEDTAVYWCATDEEYALGPNEFDYYGQGTLVTVSSRSGPPCPPCPAPEFLGGPSVFLFPPKPKDTLMISRTPEVTCVVVDVSQEDPEVQFNWYVDGVEVHNAKTKPREEQFNSTYRVVSVLTVLHQDWLNGKEYKCKVSNKGLPSSIEKTISKAKGQPREPQVYTLPPCQEEMTKNQVSLWCLVKGFYPSDIAVEWESNGQPENNYKTTPPVLDSDGSFFLYSRLTVDKSRWQEGNVFSCSVMHEALHNHYTQKSLSLSLGK
chain 2: B5 chain 1 with Y251C, C256S, W268S, L270A, Y309V

- EC50: 230 nM
B6: NIgG4A1A1(G4S)2 (Fc fusion)
chain 1: EVQLLESGGGLVQPGGSLRLSCAASGFTFGNYDMAWVRQAPGKRPEWVSSIDTGGDITHYADSVKGRFTISRDNAKNTLYLQMNSLRPEDTAVYWCATDEEYALGPNEFDYYGQGTLVTVSSGGGGSGGGGSGPPCPPCPAPEFLGGPSVFLFPPKPKDTLMISRTPEVTCVVVDVSQEDPEVQFNWYVDGVEVHNAKTKPREEQFNSTYRVVSVLTVLHQDWLNGKEYKCKVSNKGLPSSIEKTISKAKGQPREPQVYTLPPCQEEMTKNQVSLWCLVKGFYPSDIAVEWESNGQPENNYKTTPPVLDSDGSFFLYSRLTVDKSRWQEGNVFSCSVMHEALHNHYTQKSLSLSLGK
chain 2: B6 chain 1 with Y259C, C264S, W276S, L278A, Y317V

Further lines, the binder ahead of its results:

B1: CIgE4A1A1(GS)1 (Fc fusion)
chain 1: GPPCPPCPAPEFLGGPSVFLFPPKPKDTLMISRTPEVTCVVVDVSQEDPEVQFNWYVDGVEVHNAKTKPREEQFNSTYRVVSVLTVLHQDWLNGKEYKCKVSNKGLPSSIEKTISKAKGQPREPQVYTLPPCQEEMTKNQVSLWCLVKGFYPSDIAVEWESNGQPENNYKTTPPVLDSDGSFFLYSRLTVDKSRWQEGNVFSCSVMHEALHNHYTQKSLSLSLGKGGGGSEVQLLESGGGLVQPGGSLRLSCAASGFTFGNYDMAWVRQAPGKRPEWVSSIDTGGDITHYADSVKGRFTISRDNAKNTLYLQMNSLRPEDTAVYWCATDEEYALGPNEFDYYGQGTLVTVSS
chain 2: B1 chain 1 with Y127C, C132S, W144S, L146A, Y185V
notes: label printed with IgE4/(GS); also called CIgG4A1A1(G4S)1
- Max effect: ~40%

B2: CIgG4A1A1(RS) (Fc fusion)
chain 1: GPPCPPCPAPEFLGGPSVFLFPPKPKDTLMISRTPEVTCVVVDVSQEDPEVQFNWYVDGVEVHNAKTKPREEQFNSTYRVVSVLTVLHQDWLNGKEYKCKVSNKGLPSSIEKTISKAKGQPREPQVYTLPPCQEEMTKNQVSLWCLVKGFYPSDIAVEWESNGQPENNYKTTPPVLDSDGSFFLYSRLTVDKSRWQEGNVFSCSVMHEALHNHYTQKSLSLSLGKRSEVQLLESGGGLVQPGGSLRLSCAASGFTFGNYDMAWVRQAPGKRPEWVSSIDTGGDITHYADSVKGRFTISRDNAKNTLYLQMNSLRPEDTAVYWCATDEEYALGPNEFDYYGQGTLVTVSS
chain 2: B2 chain 1 with Y127C, C132S, W144S, L146A, Y185V
- Max effect: < 20%

B4: NIgG4A1A1(G4S)1 (Fc fusion)
chain 1: EVQLLESGGGLVQPGGSLRLSCAASGFTFGNYDMAWVRQAPGKRPEWVSSIDTGGDITHYADSVKGRFTISRDNAKNTLYLQMNSLRPEDTAVYWCATDEEYALGPNEFDYYGQGTLVTVSSGGGGSGPPCPPCPAPEFLGGPSVFLFPPKPKDTLMISRTPEVTCVVVDVSQEDPEVQFNWYVDGVEVHNAKTKPREEQFNSTYRVVSVLTVLHQDWLNGKEYKCKVSNKGLPSSIEKTISKAKGQPREPQVYTLPPCQEEMTKNQVSLWCLVKGFYPSDIAVEWESNGQPENNYKTTPPVLDSDGSFFLYSRLTVDKSRWQEGNVFSCSVMHEALHNHYTQKSLSLSLGK
chain 2: B4 chain 1 with Y254C, C259S, W271S, L273A, Y312V
- EC50: 260 nM

B7: CIgG4B1A1(G4S3) (Fc fusion)
chain 1: GPPCPPCPAPEFLGGPSVFLFPPKPKDTLMISRTPEVTCVVVDVSQEDPEVQFNWYVDGVEVHNAKTKPREEQFNSTYRVVSVLTVLHQDWLNGKEYKCKVSNKGLPSSIEKTISKAKGQPREPQVYTLPPCQEEMTKNQVSLWCLVKGFYPSDIAVEWESNGQPENNYKTTPPVLDSDGSFFLYSRLTVDKSRWQEGNVFSCSVMHEALHNHYTQKSLSLSLGKGGGGSGGGGSGGGGSQVQLQESGGGLVQTGGSLRLSCAVHGRTFSNTGMGWFRQAPGNERQFVAIISPSGTSTYYADSVKGRFTISRDPAKNTVYLQMNSLKMDDTAVYYCAASYGSNWSTLRHQRRNEYDAWGQGTQVAVS
chain 2: GPPCPPCPAPEFLGGPSVFLFPPKPKDTLMISRTPEVTCVVVDVSQEDPEVQFNWYVDGVEVHNAKTKPREEQFNSTYRVVSVLTVLHQDWLNGKEYKCKVSNKGLPSSIEKTISKAKGQPREPQVCTLPPSQEEMTKNQVSLSCAVKGFYPSDIAVEWESNGQPENNYKTTPPVLDSDGSFFLVSRLTVDKSRWQEGNVFSCSVMHEALHNHYTQKSLSLSLGKGGGGSGGGGSGGGGSEVQLLESGGGLVQPGGSLRLSCAASGFTFGNYDMAWVRQAPGKRPEWVSSIDTGGDITHYADSVKGRFTISRDNAKNTLYLQMNSLRPEDTAVYWCATDEEYALGPNEFDYYGQGTLVTVSS
- EC50: 3.5 nM
- Max effect: > 95%
